This passage reports Kd results from publication PMC6353898 (2019).

This assay concerns the target EGFR recombinant human protein (human, UniProt P00533 25-645). Put plainly: SPR. For orientation: SPR reads the build-up and loss of mass on a sensor chip optically.

On to AEYDFYGPGNEGSW (designed binder) [Pep24], for which the equilibrium dissociation constant (Kd) is 7.2 µM.

The term Kd denotes a measure of binding affinity in units of concentration.
